Marks after values point to notes of the source that are not given here.
B1: psUBP11: urea-binding protein from Paenibacillus sp. with FATT domain, SEQ ID NO: 21 (protein)
chain: MAEESDNVDSADAEEDDSDVWWGGADTDYADGSEDKVVEVAEEEEVAEVEEEEADDDEDDEDGDEVEEEAEEPYEEATERTTSIATTTTTTTESVEEVLEVLFQGPKETAPTAGAGNGSPPVEAAGDSIKVGILHSLSGTMAISEVSVKDAEMLAIEEINAAGGVLGKQIEPVIEDGASDWPTFAEKAGKLLQQDKVAAVFGGWTSASRKAMLPVFEQNHGLLFYPVQYEGLESSPNIFYTGATTNQQIVPSVSWLLENRGKKMFLLGSDYVFPRTANKIIKAQLTAEGGELAGEEYTPLGHTDFSTIIAKIKEAKPDIVYNTLNGDSNVAFFKQLKDAGTTSKDMTTLSVSVAEEEIRGIGADILEGHLAAWNYYQSTDTPENKAFVDKYKAKYGADRVTADPIEAGYTAVYLWKAAVEKAGTTDVDKVKEAAKGIEFAAPEGKVTIDGDNQHIHKTVRIGEVQADGQFKELWNSGEPVKPDPYLKTYDWAKGLSGEGGSHHHHHH
modifications: psUBP11 (with signal peptide replaced with M, which is followed by a FATT domain, followed by a sequence fragment for C3 protease, and with a GGSHHHHHH at C-terminus)
B2: gkUBP10: urea-binding protein from Geobacillus kaustophilus with FATT domain, SEQ ID NO: 20 (protein)
chain: MAEESDNVDSADAEEDDSDVWWGGADTDYADGSEDKVVEVAEEEEVAEVEEEEADDDEDDEDGDEVEEEAEEPYEEATERTTSIATTTTTTTESVEEVLEVLFQGPASSAVDQAKNENKKDSSSASKEGDTVKVGILHSLSGTMAISEVSLRDAELMAIEEINASGGLLGKKIEPVVEDGASDWPTFAEKAKKLLQKDQVAAIFGGWTSASRKAMLPVVEQNNGLLWYPVQYEGMESSPNIFYTGATTNQQIVPAVSWLLKNRGKTFFLLGSDYVFPRTANKIIKAQLKAEGGQVVGEEYTPLGHTDYSTIISKIKQVKPAVVFNTLNGDSNVAFFKQLKDAGITPKDVTVMSVSIAEEEIRGIGPDVLAGHLAVWNYFQTTDTPENKAFVQKYKEKYGQDRVTDDPIEAAYTAVHLWAEAVKKAGSFDVDQVKKAAAGLEYKAPEGTVKIDGETQHLWKTVRIGEIQADGQFKELWNSGQPVKPDPYLKSYPWAKGLSEGGSHHHHHHHH
modifications: gkUBP10 (with signal peptide replaced with M, which is followed by a FATT domain, followed by a sequence fragment for C3 protease, and with a GGSHHHHHH at C-terminus)
B3: bsUBP3: urea-binding protein from Bacillus sp., SEQ ID NO: 14 (protein)
chain: MKVGILHSLSGTMAISEVSVHDAELIAIQEINQKGGVLGKKLEPVVEDGASDWPTYAEKMRKLLQQDKVAAVFGGWTSASRKAMLPVVEQNNGLLFYPVQYEGMETSPNIFYTGATTNQQIVPAVDWLLKNKGKKFFLIGSDYVFPRTANKIIKAQVKAGGGEIAGEEYTPLGHTNYSTLVSKIKEKQPDVIFNTLNGDSNVAFFKQLKDAGISADDMPVMSASVAEEEIRGIGPDVLKGHYAVWNYFQTTNTSENQTFVKNYKKMNGDSRVTSDPIEAGYNAVYLWAAAVEKAKSFDVDKVKKAADGISFKAPGGTVKIDGDTQHLYKTVRIGQITGDGQFKEVWNSGEPVKPDPYLKTYDWAKGLSKGGSHHHHHH
modifications: bsUBP3 (with signal peptide replaced with M and a GGSHHHHHH at C-terminus)
B4: mhUBP2: urea-binding protein from Marinobacter hydrocarbanoclasticus, SEQ ID NO: 13 (protein)
chain: MKVGILHSLSGTMAISETALKDTMLMLIEKQNEAGGVLGRQLEPVVVDPASNWPLFAEKARELLEKEKVDVIFGNWTSVSRKSVLPVVEELNGLLFYPVQYEGEESSENVFYTGAAPNQQAIPAVDYLMNDLGVERWVLAGTDYVYPRTTNKILETYLKDKGVAAGDIMINYTPFGHSDWQTIVSDIKKFGSAGKKTAVVSTINGDANVPFYRELGNQGISATDIPVVAFSVGEQELSGIDTAPLVGHLAAWNYFMSVDNDANYDFIDAWVAYKGDDAAVTNDPMEAHYIGFNMYVEAVKKAGTTDVDEVKDAIIGVSVPNLTGGYATMMPNHHITKPVLIGEIQDNGQFSVVWETPSTVAGDAWSDFLPGSKDLISDWRAPLRAGNFNVVTGKAGGGSADVASNGGSHHHHHH
modifications: mhUBP2 (with signal peptide replaced with M and a GGSHHHHHH at C-terminus, and also comprising C385A and C395A mutations)
B5: teUBP12: urea-binding protein from Thermosynechococcus elongatus with FATT domain, SEQ ID NO: 22 (protein)
chain: MAEESDNVDSADAEEDDSDVWWGGADTDYADGSEDKVVEVAEEEEVAEVEEEEADDDEDDEDGDEVEEEAEEPYEEATERTTSIATTTTTTTESVEEVLEVLFQGPGGDTIKVGILHSLSGTMAISEKSVVDATQLAIEQINQAGGVLGKQIQPILEDGASDWPTFAEKATKLIDQDKVVAVFGAWTSASRKAVLPVFESKNHMLWYPVQYEGQEASKNIFYTGAAPNQQIEPAVDWLLQNKGKKFFLVGSDYVFPRTANTIIKAQLAAKGGETVGEDYLPLGNTEVTPIITRIRNALPDGGVIFNTLNGDSNVAFFKQLQGAGLTPDKYPTMSVSIAEEEVQAIGVEYLKGHYAAWNYFMTVDTPENKSFVEAFKAKFGQNRVTNDPMEAAYIAVHLWKQAVEQAGTADDLEKVRQAAIGQTFNAPEGPVKMFANHHISKTVRIGEVGEDGLFKIVYSTPQPVDPLPWNQFVAETKGFAADWTRTDVDNPGKFKAAGAGGSHHHHHH
modifications: teUBP12 (with signal peptide replaced with M, which is followed by a FATT domain, followed by a sequence fragment for C3 protease, and with a GGSHHHHHH at C-terminus, as well as C185A, C216A, and C481A mutations)

Assay: Thermal stability of purified UBP candidates (SYPRO Orange thermal melt, Roche LightCycler)
Assay type: physicochemical
Details: apo-protein; SYPRO Orange monitors unfolded protein
Method: The urea-binding properties of these leads were determined experimentally (Table 4). These experiments comprise four successive steps: • 1. Synthetic gene construction. […] Heterologous protein expression of the homologues in E. coli. […] Verification of urea binding.
Analysis of urea-binding properties using thermal melts.

Molecule	Thermostability ^apoTm
B1	80 °C
B2	>100 °C
B3	51 °C
B4	<25^e ° C.
B5	84 °C
